Test: soluble on expression in E. coli; label from the status in PepcDB or PDB records

Sequence | soluble on expression in E. coli
MPDAVVVGAGPNGLVAANLLADAGWSVTVLEEQPEPGGAVRHDGEVAPGFVNDLFSSFYPLAAASPVLGGLRLEEHGLRWAHAPHVLAHPLTDGTCAVLDRDVATTAASLDAFALGDGAAWERLHAVWDRYRADILDALFTPFPPVRATARLALRLRGAGGLRLARTLVLPVRRMGEEEFRGEGGRLLLAGNALHADLAPEAAGSGGFGWLMSMLGQTYGFPVPVGGSGALTEALVHRLRARGGTLHCGRRVERVLVRDRRAVGVRTADGETVTARRAVLANVSVPALYGRLVAPADLPDQVLTDLRRFQWDFATFKVDWALDGPVPWQCEAAARAGTVHLSDGLDELTRFAAQIAMRQVPDRPFSLFGQMTTTDPTRSPRGTESAWAYTHVPHDIRADAGEEGITGTWDTGERELMADRVERQVERFAPGFRALIRARRVLAPPTLQALDANLEGGAINGGTTAMHQQLVFRPVPGTGRPETPVAGLFLASAGAHPGGGVHGAPGANAARAALRQHRFAGLARIQRALTRRDRAGDRHLEHHHHHH | not soluble
MTDVIKPDYLEYDDLLDRDEMFTILEEYFMYRGLLGLRIKYGRLFNEIKKFDNDAEEQFGTIEELKQKLRLNSEEGADNFIDYIKVQKQDIVKLTVYDCISMIGLCACVVDVWRNEKLFSRWKYCLRAIKLFINDHMLDKIKSILQNRLVYVEMSKHHHHHH | soluble
MGSDKIHHHHHHMTGRNILTESESDRGRVLFSPAFRRLQQKAQVFSMEPNAAVRSRLTHSFEVSQIGRYIADLLSEKLGIATEQQAGALVNFVETACLMHDIGNPPFGHFGEEAIKKWFEDNGERCLRLSIGRPKPSDGACPDQAKVRDALVDFADFDGNPQGLRIVARLQWNTDEFGLNLTKTSLASFMKYIRMAGGEKSGIFTKKAGYFTTERDLVESVWREFGYELPQRFPLAYIMEAADDIAYCISDLEDSFEKDIVRPDDALSYVEEQYERHEFEDGDPKHVDIRRAIRQMRAKERESGGEFTFTDFRTSLNNVIVNYVADRYVENHSKILDGTLESLIPGNEPPGAILNAIRKFCREHVYTHESVQRVELAGYNAIRGLLEQCSSLLCISAEGFRAARANEKQDAKGQALVLEPKLLRLFPEKYIKVYDYHLKQAGGDEADPFLEWTYRAHLIVDFISGMTDDFAMTTYRTLAGMRL | not soluble
MGSDKIHHHHHHMEIIKKKFPKIKRDYLDTLQINIGYKCNQACSHCHVDSSPSRTEMMSDDIIKLIPKVIKANEIKLLDITGGAPELHPKFKQLVIEVRSLNVEVMDRCNLTILKEPGYESLAGFLASNKVQITASLPCYLEGNVDKQRGKGVFEKSILALKQLNNLGYGIKDKGLLLNLVYNPSTPQLPPSQKELEDIYRRELKERYGIFFSNLYVLANMPINRYENYLKTIGKLEEYNKLLKDNHNPGNINSVMCRSTLSVDWKGFLYDCDFNQQLGMKRNGNVKHLNDLLIPLVSLKNNPISTGNHCFGCTAGAGSSCGGELT | not soluble
MGSDKIHHHHHHMQQVFFQETEFLNSVIDYDHKVETENLCLDIAYGTDKNFLFGCGISIASILKYNEGSRLCFHIFTDYFGDDDRKYFDALALQYKTRIKIYLINGDRLRSLPSTKNWTHAIYFRFVIADYFINKAPKVLYLDADIICQGTIEPLINFSFPDDKVAMVVTEGQADWWEKRAHSLGVAGIAKGYFNSGFLLINTAQWAAQQVSARAIAMLNEPEIIKKITHPDQDVLNMLLADKLIFADIKYNTQFSLNYQLKESFINPVTNDTIFIHYIGPTKPWHDWAWDYPVSQAFMEAKNASPWKNTALLKPNNSNQLRYSAKHMLKKHRYLKGFSNYLFYFIEKIKH | not soluble
MTQTVYVKLSQITQVHKKDVFLSDIADVYCSDKSTASRCKAVKVQTIHSDQEKRYMGSIVDVVQKISENVPEAEVNSVGETDFIIDYQPSKKPMYTWQW | not soluble
SDSAFANLDAAGFLQIWQHFDADDNGYIEGKELDDFFRHMLKKLQPKDKITDERVQQIKKSFMSAYDATFDGRLQIEELANMILPQEENFLLIFRREAPLDNSVEFMKIWRKYDADSSGYISAAELKNFLKDLFLQHKKKIPPNKLDEYTDAMMKIFDKNKDGRLDLNDLARILALQENFLLQFKMDASSQVERKRDFEKIFAHYDVSRTGALEGPEVDGFVKDMMELVRPSISGGDLDKFRECLLTHCDMNKDGKIQKSELALCLGLKHKP | soluble
MGHHHHHHSHVVAILGMGWGAGTGLEMPSAASRGASLLNMQSLGLWTWDCLQGHWAPLIHLNSGPPSGAMERSPTWGEAAELWGSHILLPFRIRHKQTLFASLK | not soluble
GSMETSMPEYYEVFGEFRGVLMDKRFTKYWEDVEMFLARPDDLVIATYPKSGTTWISEVVYMIYKEGDVEKCKEDAIFNRIPYLECRNEDLINGIKQLKEKESPRIVKTHLPPKLLPASFWEKNCKMIYLCRNAKDVAVSYYYFLLMITSYPNPKSFSEFVEKFMQGQVPYGSWYDHVKAWWEKSKNSRVLFMFYEDMKEDIRREVVKLIEFLERKPSAELVDRIIQHTSFQEMKNNPSTNYTMMPEEMMNQKVSPFMRKGIIGDWKNHFPEALRERFDEHYKQQMKDCTVKFRMEL | soluble
MAQAEEINVATVNNGDMIIMQKLSSAWEKETGNKINWIVLEENVLRERVTTDIATNGGQFDIMTIGGYEAPIWGKQGWLAPVDDLGDDYDYADLLDPIKKGLTVDGKLYAVPFYTESSFTLYRKDLFDAAGLKMPDNPTYDQIKDFAAKLTDKSKQQYGICLRGKPGWGENMAFLGTMINTYGGRWFDMDWKPQLTSAPWKKAIADYVALMTSYGPPGAAANGFNENQTLFSSGRCAMWIDATSAAGRVYDPKQSQVADKTGFTRAPVEVTPNGSSWSWSWNLAIPNSTKKLETAKSFVKWATSKAYVKTVGESEGWVAVPPGTRKSTYELPEYKKAAPFADTVLKAIMSADPSKPTKDPVPYTGVQFVAIPEFQSIGTVVGQQIAAALSGQQTVDAALEGAQKQVERDMTRAGYIK | not soluble
MGSDKIHHHHHHMNILIKIRELTNLTNSEKELANYIVVNPKKTLQFKPKELAQAAFVSAATIYRLINKLGLNGIGELKIEIASSLRETNEEKEINYDYPILESDTPYQIMTNLNQIYKGTIDETLNNADPEELVKIGEKLIKAKTIDVYAASANLFFAQNFKFQMQEIGVLVNVPEEDYIQSLSAANSDKDHIAIVVSYGGRSRTLQRVVKILSENDVDIILITSMQANPLVEFATHKIYMASAENHYNKVSSFSTRQSLLSIFDTLYSVYFNHDYEKNIQYKTTNYQKMNSELE | not soluble
MSNSKDLMSEFEKLRQETSKIQYSLIQKLPSEPSSFVENQLLLETQTLCGQLLKNQEEQNILNEKLRNEQKIIKLKHNTEMKSMRDKLETLTTAQAAQKLDFERHFEMMRQSHSAKIVKMERDLRNMKYDLHSLRSDMDSRKNCENRAAPKPEFQIFVKVLGVSYAFKIHREDTVFDIKNDIEHRHDIPQHSYWLSFSGKRLEDHCSIGDYNIQKSSTITMYFRSG | not soluble
GPGSMIFGSEPPLYLKPVGRRGLRRHEADVLQHYPGYSHPVVQLRGSEGYIGDSHRLHPRLTAAEELRHERELGAERRQRVVEVRRRRHCEREANLAQRREDEFQREQRHKAQLAGLCIRNEPGDGRDTITQQYRTEDARRHYEYKHELEKHRYFARQQRLREKTHPHGYNILTGEALPSTVVPPKPSIPSDTQLFAVQNGD | not soluble
MGSDKIHHHHHHMALRKNRGSRMQRNVIAMTEPKSLNSEQYRTIRTNIEFASVDRQMKSVMITSACPGEGKSTTAANLAVVFAQQGKKVLLIDADLRKPTVHTAFFLENTVGLTSVLLKKSSMEQAVQASNEKHLDVLTSGPIPPNPAELLSSKWMKELAYEACAAYDMVIFDTPPILAVADAQILGNVADGSVLVISSGKTEKEQAAKAKEALATCKSKLLGAIMNGKKLSKHSEYGYYGTKDNFMQK | not soluble
MGSDKIHHHHHHMDDRPLFGPFARKGSYSRVQVFDHLFADDRFTALYQEIAILPEVDELMLYRRYLQKEDRVLVHGNFSATLFNTLCAEGYDLYLVESELTRIAGIADPYLHRVYGLSNEVVDVMGSHAFNKIILPGTTIARYSRGELLLFFRNIRHLLATDGQLLISIHNADYLRQNVQPIASRRMEDCTLFYGQKVDRDRLIFNTYLKSASDEKVGYVVEHLYETDTLFEFAKLSRYRGRTLYAGKSISILEFDKIG | not soluble
MKFKTNKLSLNLVLASSLLAASIPAFAVTGDTDQPIHIESDQQSLDMQGNVVTFTGNVIVTQGTIKINADKVVVTRPGGEQGKEVIDGYGKPATFYQMQDNGKPVEGHASQMHYELAKDFVVLTGNAYLQQVDSNIKGDKITYLVKEQKMQAFSDKGKRVTTVLVPSQLQDKNNKGQTPAQKKGN | soluble

Reference: the DeepSol protein solubility set
